Test results from patent US20240018502A1.
Positions count from the first letter of the chain named. Numbers in names are those of the source.

B1: MTSP-1 protease domain I41S/F97D/F99L/C122S/Q192V (enzyme)
chain: VVGGTDADEGEWPWQVSLHALGQGHSCGASLISPNWLVSAAHCYIDDRGFRYSDPTQWTAFLGLHDQSQRSAPGVQERRLKRIISHPFFNDDTLDYDIALLELEKPAEYSSMVRPISLPDASHVFPAGKAIWVTGWGHTQYGGTGALILQKGEIRVINQTTCENLLPQQITPRMMCVGFLSGGVDSCVGDSGGPLSSVEADGRIFQAGVVSWGDGCAQRNKPGVYTRLPLFRDWIKENTGV
B2: MTSP-1 protease domain I41E/F97L/F99L/C122S/Q192A (enzyme)
chain: B1 chain with S26E, D92L, V188A
B3: MTSP-1 protease domain I41S/F97A/ins97aV/T98L/C122S/Q192A (enzyme)
chain: VVGGTDADEGEWPWQVSLHALGQGHSCGASLISPNWLVSAAHCYIDDRGFRYSDPTQWTAFLGLHDQSQRSAPGVQERRLKRIISHPFFNDAVLFDYDIALLELEKPAEYSSMVRPISLPDASHVFPAGKAIWVTGWGHTQYGGTGALILQKGEIRVINQTTCENLLPQQITPRMMCVGFLSGGVDSCAGDSGGPLSSVEADGRIFQAGVVSWGDGCAQRNKPGVYTRLPLFRDWIKENTGV
B4: MTSP-1 protease domain I41S/F97del/T98S/F99L/C122S/Q192S (enzyme)
chain: VVGGTDADEGEWPWQVSLHALGQGHSCGASLISPNWLVSAAHCYIDDRGFRYSDPTQWTAFLGLHDQSQRSAPGVQERRLKRIISHPFFNDSLDYDIALLELEKPAEYSSMVRPISLPDASHVFPAGKAIWVTGWGHTQYGGTGALILQKGEIRVINQTTCENLLPQQITPRMMCVGFLSGGVDSCSGDSGGPLSSVEADGRIFQAGVVSWGDGCAQRNKPGVYTRLPLFRDWIKENTGV
B5: MTSP-1 protease domain I41A/Y60gW/D96F/F97G/F99M/C122S/Q175W/Q192A (enzyme)
chain: B1 chain with S26A, Y52W, D91F, D92G, L94M, Q169W, V188A
B6: MTSP-1 protease domain I41G/Y60gW/F99L/C122S/Q175R/Q192S (enzyme)
chain: B1 chain with S26G, Y52W, D92F, Q169R, V188S
B7: MTSP-1 protease domain I41A/Y60gW/ins97aE/F99L/C122S/Q175M/Q192T (enzyme)
chain: B3 chain with S26A, Y52W, A92F, V93E, L94T, F95L, Q170M, A189T
B8: MTSP-1 Q38H/I41S/D60bT/Y60gW/D96K/F97G/ins97aV/T98P/F99L/C122S/G151H/Q175L/Q192D (enzyme)
chain: B3 chain with Q23H, D47T, Y52W, D91K, A92G, L94P, F95L, G146H, Q170L, A189D
B9: MTSP-1 protease domain I41T/ins97aA/F99Y/C122S/Q175L/Q192A (enzyme)
chain: B3 chain with S26T, A92F, V93A, L94T, F95Y, Q170L
B10: MTSP-1 protease domain I41A/ins97aY/F99L/C122S/Q175R/Q192H (enzyme)
chain: B3 chain with S26A, A92F, V93Y, L94T, F95L, Q170R, A189H
B11: MTSP-1 protease domain I41S/ins97aT/F99L/C122S/Q175R/Q192H (enzyme)
chain: B3 chain with A92F, V93T, L94T, F95L, Q170R, A189H
B12: MTSP-1 protease domain I41S/Y60gW/ins97aN/F99L/C122S/Q175R/Q192T (enzyme)
chain: B3 chain with Y52W, A92F, V93N, L94T, F95L, Q170R, A189T
B13: MTSP-1 protease domain Q38H/I41S/D96S/ins97aK/C122S/G151N/Q192A (enzyme)
chain: B3 chain with Q23H, D91S, A92F, V93K, L94T, G146N
B14: MTSP-1 protease domain Q38H/I41A/D96A/ins97aA/C122S/G151D/Q192T (enzyme)
chain: B3 chain with Q23H, S26A, D91A, A92F, V93A, L94T, G146D, A189T
B15: MTSP-1 protease domain Q38H/I41S/D96Q/ins97aT/C122S/G151N/Q192A (enzyme)
chain: B3 chain with Q23H, D91Q, A92F, V93T, L94T, G146N
B16: MTSP-1 protease domain Q38H/I41T/D96M/ins97aA/C122S/G151D (enzyme)
chain: B3 chain with Q23H, S26T, D91M, A92F, V93A, L94T, G146D, A189Q
B17: MTSP-1 protease domain Q38Y/I41A/D96I/ins97aQ/C122S (enzyme)
chain: B3 chain with Q23Y, S26A, D91I, A92F, V93Q, L94T, A189Q
B18: MTSP-1 protease domain Q38H/I41S/D96K/ins97aT/C122S/G151K/Q192A (enzyme)
chain: B3 chain with Q23H, D91K, A92F, V93T, L94T, G146K
B19: MTSP-1 Q38H/I41S/D60bT/F60eS/D96K/F97G/ins97aV/T98P/F99L/C122S/G151H/Q175L/Q192D (enzyme)
chain: B3 chain with Q23H, D47T, F50S, D91K, A92G, L94P, F95L, G146H, Q170L, A189D
B20: MTSP-1 protease domain Q38W/I41S/D96R/ins97aA/C122S/G151N/Q192A (enzyme)
chain: B3 chain with Q23W, D91R, A92F, V93A, L94T, G146N
B21: MTSP-1 protease domain Q38H/I41A/D96R/ins97aQ/C122S (enzyme)
chain: B3 chain with Q23H, S26A, D91R, A92F, V93Q, L94T, A189Q
B22: MTSP-1 protease domain Q38F/I41V/D96Q/ins97aT/C122S/G151D (enzyme)
chain: B3 chain with Q23F, S26V, D91Q, A92F, V93T, L94T, G146D, A189Q
B23: MTSP-1 protease domain L33M/Q38F/I41S/D96A/ins97aW/C122S/G151N/Q192S (enzyme)
chain: B3 chain with L18M, Q23F, D91A, A92F, V93W, L94T, G146N, A189S
B24: MTSP-1 protease domain Q38H/I41S/D96V/ins97aA/C122S/G151N/Q192A (enzyme)
chain: B3 chain with Q23H, D91V, A92F, V93A, L94T, G146N
B25: MTSP-1 protease domain Q38H/I41T/D96K/ins97aL/C122S/G151N/Q192A (enzyme)
chain: B3 chain with Q23H, S26T, D91K, A92F, V93L, L94T, G146N
B26: MTSP-1 protease domain Q38H/I41S/D96Q/ins97aA/C122S/Q192T (enzyme)
chain: B3 chain with Q23H, D91Q, A92F, V93A, L94T, A189T
B27: MTSP-1 protease domain Q38W/I41V/D96R/ins97aA/C122S/G151N (enzyme)
chain: B3 chain with Q23W, S26V, D91R, A92F, V93A, L94T, G146N, A189Q
B28: MTSP-1 protease domain Q38Y/I41T/D96M/ins97aS/C122S/G151N (enzyme)
chain: B3 chain with Q23Y, S26T, D91M, A92F, V93S, L94T, G146N, A189Q
B29: MTSP-1 protease domain Q38H/I41S/D96K/ins97aS/C122S/G151P/Q192S (enzyme)
chain: B3 chain with Q23H, D91K, A92F, V93S, L94T, G146P, A189S

Target: plasma purified human complement protein C3 (human) (UniProt P01024)
Sequence (P01024 23-667, chain 1 of 2): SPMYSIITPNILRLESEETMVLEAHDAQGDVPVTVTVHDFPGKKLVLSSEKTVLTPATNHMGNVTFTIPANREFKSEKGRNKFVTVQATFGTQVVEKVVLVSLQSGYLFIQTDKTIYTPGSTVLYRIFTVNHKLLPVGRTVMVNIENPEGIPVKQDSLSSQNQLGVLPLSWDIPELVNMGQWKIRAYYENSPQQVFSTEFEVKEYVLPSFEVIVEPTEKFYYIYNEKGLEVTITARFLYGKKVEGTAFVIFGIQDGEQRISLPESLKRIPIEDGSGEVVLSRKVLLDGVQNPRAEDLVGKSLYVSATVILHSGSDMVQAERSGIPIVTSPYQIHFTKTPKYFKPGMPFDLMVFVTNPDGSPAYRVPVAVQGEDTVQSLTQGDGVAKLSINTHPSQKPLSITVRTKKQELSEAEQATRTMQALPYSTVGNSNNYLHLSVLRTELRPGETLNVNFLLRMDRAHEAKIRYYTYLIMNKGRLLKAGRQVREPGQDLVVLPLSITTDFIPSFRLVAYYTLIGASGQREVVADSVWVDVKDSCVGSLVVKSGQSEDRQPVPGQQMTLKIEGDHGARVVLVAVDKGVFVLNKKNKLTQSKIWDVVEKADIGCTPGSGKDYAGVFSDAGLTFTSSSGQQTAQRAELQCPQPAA
Sequence (P01024 672-1663, chain 2 of 2): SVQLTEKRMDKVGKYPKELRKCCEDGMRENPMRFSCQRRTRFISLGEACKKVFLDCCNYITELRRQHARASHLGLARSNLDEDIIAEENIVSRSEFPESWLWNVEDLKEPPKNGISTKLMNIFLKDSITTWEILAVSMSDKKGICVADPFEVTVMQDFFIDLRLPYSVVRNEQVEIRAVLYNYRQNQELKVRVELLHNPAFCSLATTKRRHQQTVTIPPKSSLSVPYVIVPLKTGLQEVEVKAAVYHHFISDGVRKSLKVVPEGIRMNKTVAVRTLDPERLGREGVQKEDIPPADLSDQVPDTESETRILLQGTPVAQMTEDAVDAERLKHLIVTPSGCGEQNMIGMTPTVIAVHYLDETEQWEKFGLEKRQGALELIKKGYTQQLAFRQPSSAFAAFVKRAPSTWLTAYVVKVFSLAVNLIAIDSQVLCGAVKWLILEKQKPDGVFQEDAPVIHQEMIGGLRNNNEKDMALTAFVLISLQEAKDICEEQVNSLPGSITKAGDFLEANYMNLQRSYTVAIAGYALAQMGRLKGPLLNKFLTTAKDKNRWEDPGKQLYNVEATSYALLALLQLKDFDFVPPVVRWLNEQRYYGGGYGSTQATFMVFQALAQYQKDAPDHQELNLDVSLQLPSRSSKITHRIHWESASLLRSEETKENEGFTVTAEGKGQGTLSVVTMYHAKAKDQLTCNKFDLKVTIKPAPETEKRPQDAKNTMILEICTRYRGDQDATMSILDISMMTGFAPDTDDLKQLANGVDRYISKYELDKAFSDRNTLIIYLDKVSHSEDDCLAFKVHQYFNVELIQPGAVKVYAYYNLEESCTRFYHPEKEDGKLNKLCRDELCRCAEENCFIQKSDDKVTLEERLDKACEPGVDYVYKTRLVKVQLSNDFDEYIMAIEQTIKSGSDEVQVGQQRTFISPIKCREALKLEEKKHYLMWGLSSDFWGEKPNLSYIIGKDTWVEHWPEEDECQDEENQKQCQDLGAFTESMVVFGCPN
Assay: cell-based or functional assay

Binder	EC50 hC3 cleavage [nM]	EC50 of hC3 cleavage [nM]
B1	31	
B2	47.4	
B3	5.3	
B4	23.2	
B5	4.06	
B6	6.95	
B7	8.9	
B8		8.64
B9	28	
B10	14.8	
B11	27.5	
B12	12	
B13	16.7	
B14	9.25	
B15	17.9	
B16	10.8	
B17	4.26	
B18	19.2	
B19		22.2
B20	9.5	
B21	7.6	
B22	9.89	
B23	10.6	
B24	16	
B25	44.7	
B26	10.2	
B27	4.49	
B28	12.5	
B29	25.6	
